Article PMC3123307, “Identification of the Allosteric Regulatory Site of Insulysin” (PLoS ONE, 2011)
Substitutions are numbered along the chain they refer to. Numbers in names are those of the source. One block for each molecule: values may come before it.

Tests used:
[1] = molecular target: Native rat insulin degrading enzyme (rIDE, insulysin), wild type, residues 42-1019 (rat) (UniProt P35559)
[2] = molecular target: the molecule itself; assay: crystal structure; wild type rIDE and rIDE-E111F, no substrate peptide added; enzyme at 8 mg/ml in 50 mM Tris 7.4, 1 mM DTT, 100 mM NaCl; sitting drop, 100 mM sodium citrate pH 6.5, 100 mM ammonium acetate, 20% PEG 4000, 20 or 22°C; space group C2, one molecule per asymmetric unit

- enzyme activity: activation by bradykinin of hydrolysis of 10 µM Abz-…-EDDnp [1]: 4 fold
Molecule: bradykinin (from UniProt P01042 381-389) (peptide)

B1: Native rat insulin degrading enzyme (rIDE, insulysin), wild type, residues 42-1019 (enzyme, UniProt P35559 42-1019, looked up)
chain: MNNPAIQRIEDHIVKSPEDKREYRGLELANGIKVLLISDPTTDKSSAALDVHIGSLSDPPNIPGLSHFCEHMLFLGTKKYPKENEYSQFLSEHAGSSNAFTSGEHTNYYFDVSHEHLEGALDRFAQFFLCPLFDASCKDREVNAVDSEHEKNVMNDAWRLFQLEKATGNPKHPFSKFGTGNKYTLETRPNQEGIDVREELLKFHSTYYSSNLMAICVLGRESLDDLTNLVVKLFSEVENKNVPLPEFPEHPFQEEHLKQLYKIVPIKDIRNLYVTFPIPDLQQYYKSNPGHYLGHLIGHEGPGSLLSELKSKGWVNTLVGGQKEGARGFMFFIINVDLTEEGLLHVEDIILHMFQYIQKLRAEGPQEWVFQECKDLNAVAFRFKDKERPRGYTSKIAGKLHYYPLNGVLTAEYLLEEFRPDLIDMVLDKLRPENVRVAIVSKSFEGKTDRTEQWYGTQYKQEAIPEDVIQKWQNADLNGKFKLPTKNEFIPTNFEILALEKDATPYPALIKDTAMSKLWFKQDDKFFLPKACLNFEFFSPFAYVDPLHCNMAYLYLELLKDSLNEYAYAAELAGLSYDLQNTIYGMYLSVKGYNDKQPILLKKITEKMATFEIDKKRFEIIKEAYMRSLNNFRAEQPHQHAMYYLRLLMTEVAWTKDELKEALDDVTLPRLKAFIPQLLSRLHIEALLHGNITKQAALGVMQMVEDTLIEHAHTKPLLPSQLVRYREVQLPDRGWFVYQRRNEVHNNCGIEIYYQTDMQSTSENMFLELFCQIISEPCFNTLRTKEQLGYIVFSGPRRANGIQGLRFIIQSEKPPHYLESRVEAFLITMEKAIEDMTEEAFQKHIQALAIRRLDKPKKLSAECAKYWGEIISQQYNYDRDNIEVAYLKTLSKDDIIKFYKEMLAVDAPRRHKVSVHVLAREMDSCPVVGEFPSQNDINLSEAPPLPQPEVIHNMTEFKRGLPLFPLVKPHINFMAAKL
notes: Insulin-degrading enzyme (insulysin, EC 3.4.24.56), rat; begins at methionine 42 and extends through the native C-terminal residue leucine 1019 (the same paragraph also prints 'residues 42-1016'); In the crystal there is one molecule per asymmetric unit, and the dimer is formed by crystal symmetry; Expressed from pFastBac HTb; The model contains residues 42-963 and 980-1011; also called wild type …
- binding result [2]: binds

B2: rat insulin degrading enzyme E111F mutant (rIDE-E111F), residues 42-1019 (enzyme, UniProt P35559 42-1019, looked up)
chain: B1 chain with E70F
notes: Insulin-degrading enzyme (insulysin), rat; begins at methionine 42 and extends through leucine 1019; catalytically compromised E111F mutant; No zinc ion in the crystal structure; The model contains residues 42-965 and 978-1011; also called E111F-rIDE; E111F IDE mutant; not shown: His6, N-terminal, cleaved
- binding result [2]: binds
